Assay results published in US20030171537A1 (Bayer, published 2003).
Non-standard residues stand in square brackets, D forms with d.

Biological target: human wild-type p53 (full-length, in vitro translated from plasmid pGEMhump53wt) (human, UniProt P04637 1-393)
Assay: cell-based or functional assay

Sequence of human wild-type p53 (full-length, in vitro translated from plasmid pGEMhump53wt) (P04637 whole entry): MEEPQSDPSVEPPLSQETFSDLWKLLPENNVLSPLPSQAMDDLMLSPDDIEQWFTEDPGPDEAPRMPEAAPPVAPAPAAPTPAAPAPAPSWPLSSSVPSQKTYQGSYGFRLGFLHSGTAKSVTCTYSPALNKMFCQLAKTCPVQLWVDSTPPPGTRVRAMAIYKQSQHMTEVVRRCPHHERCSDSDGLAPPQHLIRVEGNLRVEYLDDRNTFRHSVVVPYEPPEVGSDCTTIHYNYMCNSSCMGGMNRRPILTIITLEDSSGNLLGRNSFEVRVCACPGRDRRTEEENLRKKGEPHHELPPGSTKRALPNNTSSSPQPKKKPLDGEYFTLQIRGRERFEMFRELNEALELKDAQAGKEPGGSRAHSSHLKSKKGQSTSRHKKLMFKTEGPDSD

B1: cyclic peptide c[SRHKKa] (peptide)
peptide: cyclo(SRHKK[dA])
SMILES: C[C@H]1NC(=O)[C@H](CCCCN)NC(=O)[C@H](CCCCN)NC(=O)[C@H](Cc2c[nH]cn2)NC(=O)[C@H](CCCNC(=N)N)NC(=O)[C@H](CO)NC1=O
In the case of B1, the “activation of p53 DNA binding (gel shift), relative to 0.05 mM peptide p53p363-373” value is reported as roughly 2 times.
